{"source": "patent US20230383007A1", "about": "(BIOSION, published 2023)", "binders": {"B1": {"name": "single domain antibody 01-9F (VHH)", "VHH": "QVQLVESGGGSVQAGGSLRLSCVVSGLPYERYCVAWFRQGPGKEREGVARILSDGTTSYSDSVKGRFTISKDNAKNTLYLQMNSLKSEDTATYYCAAEAFRPFTPSDGDCTTVLGIDYWGKGTPVTVSS"}}, "key": {"human TROP2-his protein": {"biological_target": "T1, human TROP2-his protein (human, UniProt P09758 27-274)", "T1 construct": "also called biotin labeled human TROP2-his protein", "T1 sequence": "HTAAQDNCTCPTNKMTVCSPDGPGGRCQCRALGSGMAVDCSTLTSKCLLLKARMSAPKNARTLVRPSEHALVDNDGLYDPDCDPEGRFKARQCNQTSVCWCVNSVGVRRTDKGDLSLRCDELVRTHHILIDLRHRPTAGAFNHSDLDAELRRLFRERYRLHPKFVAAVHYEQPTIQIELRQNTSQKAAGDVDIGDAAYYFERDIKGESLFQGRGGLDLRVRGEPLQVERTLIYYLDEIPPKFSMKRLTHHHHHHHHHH", "assay": "indirect ELISA, plate coated with 1 ug/ml TROP2-his; bacterial culture supernatant", "description": "(§1) ELISA plates were coated with 100 μl 1 μg/ml human TROP2-his protein (in house made with SEQ ID NO: 16), or 1 μg/ml cynomolgus TROP2-his protein (in house made with SEQ ID NO: 19) in carbonate/bicarbonate buffer (pH 9.6) overnight at 4° C., washed once with wash buffer (PBS+0.05% v/v Tween-20, PBST) and then blocked with 200 μl/well blocking buffer (5% w/v non-fatty milk in PBST) for 2 hours at 37° C. Plates were washed 4 times, and respectively incubated with 100 μl bacterial culture supernatant, and sacituzumab (used as the benchmark, also referred to as BM or BM1 hereinafter, in house made with heavy chain and light chain amino acid sequences set forth in SEQ ID NOs: 17 and 18) in 5% w/v non-fatty milk in PBST at 200 ng/ml, for 40 minutes at 37° C. The plates were washed 4 times, and incubated with THE™ HA Tag Antibody [HRP], mAb, Mouse Antibody (1:5000 dilution in PBST, GenScript, Cat #A01296, 100 μl/well, for plates with bacterial culture supernatans of the disclosure) or Peroxidase AffiniPure F(ab′)₂ Fragment Goat Anti-Human IgG, Fey fragment specific (Jackson Immunoresearch, Cat #109-036-098, for plates with the benchmark), for 40 minutes at 37° C. After a final wash, plates were incubated with 100 μl/well ELISA substrate TMB (Innoreagents, Cat #TMB-S-002) at room temperature. The reaction was stopped in 3-10 minutes with 50 μl/well 1M H₂SO₄, and the absorbance of each well was read on a microplate reader using dual wavelength mode with 450 nm for TMB and 630 nm as the reference wavelength. When the OD of a sample well was 2 times higher than the OD of the blank well, the sample can be determined as positive."}, "[1]": {"biological_target": "T2, cynomolgus TROP2-his protein (cynomolgus, UniProt P09758 27-272 (human entry), limits assumed)", "T2 construct": "also called Cyno TROP2-his; Cynomolgus monkey TROP2-his protein", "T2 chain": "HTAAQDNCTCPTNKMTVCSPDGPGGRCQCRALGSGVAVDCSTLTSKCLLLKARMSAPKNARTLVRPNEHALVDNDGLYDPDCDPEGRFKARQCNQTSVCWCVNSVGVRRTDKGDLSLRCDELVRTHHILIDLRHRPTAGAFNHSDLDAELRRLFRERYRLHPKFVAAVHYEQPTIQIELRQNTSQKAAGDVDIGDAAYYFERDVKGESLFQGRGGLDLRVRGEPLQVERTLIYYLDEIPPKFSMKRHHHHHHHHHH", "assay": "indirect ELISA, plate coated with 1 ug/ml TROP2-his; bacterial culture supernatant", "description": "as §1"}}}
{"binder": "B1", "values": [{"measurement": "Indirect ELISA OD (450-630)", "setting": "human TROP2-his protein", "value": "0.97 OD (450-630)"}, {"measurement": "Indirect ELISA OD (450-630)", "setting": "[1]", "value": "0.59 OD (450-630)"}]}
